B1: mCherry-MYO10-SLC26A4-Ct (NanoSPD bait) [mouse] / μ2-MID-EGFP (NanoSPD prey) [mouse] (parent complex)
chain 1: RVQFPSWNGLGSVPSTDIYKSITHYKNLEEPEGVKILRFSSPIFYGNVDGFKKCINSTVGFDAIRVYNKRLKALRRIQKLIKKGQLRATKNGIISDIGSSNNAFEPDEDVEEPEELNIPTKEIEIQVDWNSELPVKVNVPKVPIHSLVLDCGAVSFLDVVGVRSLRMIVKEFQRIDVNVYFALLQDDVLEKMEQCGFFDDNIRKDRFFLTVHDAILHLQNQVKSREGQDSLLETVARIRDCKDPLDLMEAEMNAEELDVQDEAMRRLAS
chain 2: SETGALKTFITQQGIKSQHQTKEEQSQITSQVTGQIGWRREGIKYRRNELFLDVLESVNLLMSPQGQVLSAHVSGRVVMKSYLSGMPECKFGMNDKIVIEKQGKGTADETSKSGKQSIAIDDCTFHQCVRLSKFDSERSISFIPPDGEFELMRYRTTKDIILPFRVIPLVREVGRTKLEVKVVIKSNFKPSLLAQKIEVRIPTPLNTSGVQVICMKGKAKYKASENAIVWKIKRMAGMKESQISAEIELLPTNDKKKWARPPISMNFEVPFAPSGLKVRYLKVFEPKLNYSDHDVIKWVRYIGRSGIYETRC

Variants of: B1
Test: NanoSPD assay; HeLa cells; mean of biological replicate means; parent: 1.3e+04; read off a plot

Variant | response [A.U.]
chain 1 L28A | ~2000

Variants of: B1
Test: NanoSPD assay; HeLa cells; mean of biological replicate means; parent: 2.7e+03; read off a plot

Variant | response [A.U.]
chain 1 Y19A, chain 1 Y25A, chain 1 Y45A, chain 1 Y180A | ~210
chain 1 Y19A, chain 1 Y45A, chain 1 Y180A | ~530
chain 1 Y25A | ~190
